From the DeepSol protein solubility set

experiment: soluble on expression in E. coli; label from the status in PepcDB or PDB records

Sequence	soluble on expression in E. coli
GTQPTFGFTVNWKFSESTTVFTGQCFIDRNGKEVLKTMWLLRSSVNDIGDDWKATRVGINIFTRLRTQKEGGSGGSARKCSLTGKWTNDLGSNMTIGAVNSRGEFTGTYITAVTATSNEIKESPLHGTQNTINKSGGSTTVFTGQCFIDRNGKEVLKTMWLLRSSVNDIGDDWKATRVGINIFTRLRTQKEGGSGGSARKCSLTGKWTNDLGSNMTIGAVNSRGEFTGTYITAVTATSNEIKESPLHGTQNTINKRTQPTFGFTVNWKFSE	soluble
HDFASWVSGDSMEPKYHNGSVTLIRETGFDYDGAVYAVVCNSQTYIKRVYLEAEGLRLKYKDIFISYDEDPRVVRIIIGNFIPL	not soluble
HDTRKIIAKQLGPHTYLVSGRMEIDDVNERFGLSLPESDDYLTVAGFILNSHQNIPQANEVVEIAPYTFTILRSSSTKIELVKMSIDD	not soluble
HEHPTSAGGDGGAGTGAVGTHDGSAAAAAAAAALPSISGARGHAGPEGGHDNDMGGMDASGGGGGGGYGRLPGLAAQSSMASVDGDEASLPPIANLSLGKANMTGSTVGGAAHASTRRSTLNTYYEPGAGGGGGTGGAGGGGGGAGPGPAGYGKVAKAAAVGGAGSVAGGGGVVGGAGVGGGGAVGSGTVGRRQSVGVVVGKYGSVNKQASQGHGGGGPGVAGAAGMAVTGGHAGGGVGGGGGGAVGVGGVGVNKYKANVGKTNSKYISPYSLRQLAG	not soluble
HHHHHHDITFRNIRFRYKPDSPVILDNINLSIKQGEVIGIVGRSGSGKSTLTKLIQRFYIPENGQVLIDGHDLALADPNWLRRQVGVVLQDNVLLNRSIIDNISLANPGMSVEKVIYAAKLAGAHDFISELREGYNTIVGEQGAGLSGGQRQRIAIARALVNNPKILIFDEATSALDYESEHVIMRNMHKICKGRTVIIIAHRLSTVKNADRIIVMEKGKIVEQGKHKELLSEPESLYSYLYQLQSD	soluble
HHHHHHGILMMANRMILNETAWFGRGAVGALTDEVKRRGYQKALIVTDKTLVQCGVVAKVTDKMDAAGLAWAIYDGVVPNPTITVVKEGLGVFQNSGADYLIAIGGGSPQDTCKAIGIISNNPEFADVRSLEGLSPTNKPSVPILAIPTTAGTAAEVTINYVITDEEKRRKFVCVDPHDIPQVAFIDADMMDGMPPALKAATGVDALTHAIEGYITRGAWALTDALHIKAIEIIAGALRGSVAGDKDAGEEMALGQYVAGMGFSNVGLGLVHGMAHPLGAFYNTPHGVANAILLPHVMRYNADFTGEKYRDIARVMGVKVEGMSLEEARNAAVEAVFALNRDVGIPPHLRDVGVRKEDIPALAQAALDDVCTGGNPREATLEDIVELYHTAW	soluble
HHHHHHGSQEAPHFKPGEDPRQPHQEWKLIENMSDEFEGKKIDEKKWQISGQGWIGRAPGLFLAENISLNNGSLQITTTMLPEPIVKNNKTYTHGGGYVGSRNGMTYGYYECEMKANKTFMSSTFWLINEGKDRLGCDKRTTELDIQESVGQITNDADWMKYFDQTMNSNTHSRNIPEGCEYEKGSSKGKAELGGKAYEDFHVYGVWWKSKDEIIFFLDGKMQSKVTPPADFDIEMYLRMVVETYDWNPVPKDGGMTGSKEDRTTTYNWVRSWQLVDSKN	soluble
HHHHHHKVDLGGFAGLFDLKAAGFKDPLLASGTDGVGTKLKIAQLCNKHDTIGQDLVAMCVNDILAQGAEPLFFLDYFSCGKLDLSVTEAVVAGIAKACGKAGCALLGGETAEMPDMYPPGEYDLAGFAVGAMERDQKLPHLERITEGDVVVGIASSGLHSNGFSLVRKIVAKSSLQYSSPAPDGCGDQTLGDLLLTPTRIYSHSLLPVLRSGHVKAFAHITGGGLLENIPRVLPEKLGVDLDAQTWRIPRVFSWLQQEGHLSEEEMARTFNCGVGAVLVVSKEQTEQILRGIQQHKEEAWVIGSVVARAEGSPRVKVKNLIESMQINGSVLKN	soluble
HHHHHHSSGLVPRGSGMKETAAAKFERQHMDSPDLGTDDDDKASSSANECISVKGRIYSILKQIGSGGSSKVFQVLNEKKQIYAIKYVNLEEADNQTLDSYRNEIAYLNKLQQHSDKIIRLYDYEITDQYIYMVMECGNIDLNSWLKKKKSIDPWERKSYWKNMLEAVHTIHQHGIVHSDLKPANFLIVDGMLKLIDFGIANQMQPDTTSVVKDSQVGAVNYMPPEAIKDMSSSRENGKSKSKISPKSDVWSLGCILYYMTYGKTPFQQIINQISKLHAIIDPNHEIEFPDIPEKDLQDVLKCCLKRDPKQRISIPELLAHPYVQIQTHPVNQMAKGTTEEMKYVLGQLVGLNSPNSILKAAKTLYEHYSGGESHNSSSSKTFEKKRGKK	soluble
HHHSSGLTPRGSQMKKIAFGCDHVGFILKHEIVAHLVERGVEVIDKGTWSSERTDYPHYASQVALAVAGGEVDGGILICGTGVGISIAANKFAGIRAVVCSEPYSAQLSRQHNDTNVLAFGSRVVGLELAKMIVDAWLGAQYEGGRHQQRVEAITAIEQRRN	soluble
HKGTLYVVATPLGNLDDMTFRAVNTLRNAGAIACEDTRRTSILLKHFGIEGKRLVSYHSFNEERAVRQVIELLEEGSDVALVTDAGTPAISDPGYTMASAAHAAGLPVV	not soluble
HKPWRAEYAKSSRSSCKTCKSVINKENFRLGKLVQSTHFDGIMPMWNHASCILKKTKQIKSVDDVEGIESLRWEDQQKIRKYVESGAGSNTSTSTGTSTSS	soluble
HKRPVPAKRYDNVTILFSGIVGFNAFCSKHASGEGAMKIVNLLNDLYTRFDTLTDSRKNPFVYKVETVGDKYMTVSGLPEPCIHHARSICHLALDMMEIAGQVQVDGESVQITIGIHTGEVVTGVIGQRMPRYCLFGNTVNLTSRTETTGEKGKINVSEYTYRCLMSPENSDPQFHLEHRGPVSMKGKKEPMQVWFLSRKNTGTEETKQDDDAENLYFQ	soluble
HLEGLGASVLDFTGFAQKFGTVLSYIRLGAKPDTLHQVRIDTGGADAVIGCDMVVSSAPKASAHYRNGTKVVLNRAEMPTGDLVLHRDAQLKIDTREAAIRAVVGTENVSGFDANQTAEQLLGDAVFANVMMLGYAWQQGLVPVSRSALAQAILLNGVAVEKNRLAFAAGRALAADPARLDVESASPE	not soluble
HMSMYAVNAGIAKTTVQILVDHIAHSGWLDEAASAVLLDIVRTPISPELKPVGQDGNISQKTEDLVGPYELHDFFIYHFLHNEYKPSKIYYLAGVAFKGIYTKAEIKKWMMVFFRRFFAQQYKRNCMPDGPKVSCISLSPRGAWRMASDASSALWLDEIAKFETD	not soluble
HPECKKSVEDVNNDLKKFVSINGKKTVTEFHRELGKIMWNNVGMARSEESCKEALKVIPQIREEFWKNVKVSGSGAEFNQQLENAGRVADFLEFAELMTLDALHRNESCGGHFRVEHQMPD	not soluble
HPSIFAATDGHSSRLDVTMGMSYNNRFFASLMYRPTQAVGVSLGMQLGKFYAGYAFEWPTSVLAKASWGSHELLVSYSFPLSNTKNRDAKYKSIRFL	not soluble
HSDPARRGQLSVCDSISEWVTAADKKTAVDMSGGTVTVLEKVPVSKGQLKQYFYETKCNPMGYTKEGCRGIDKRHWNSQCRTTQSYVRALTMDSKKRIGWRFIRIDTSCVCTLTIKRGR	soluble
HTERVGWLSGRIAEEMGMSEVFVTEIQFAAPLHDIGKIGIPDRILLKPGILTPEEFEIMKQHTTIGFRILSRSNSPILQLGAEIALTHHERWDGSGYPRGLKEREIPISGLIVAVADSFDA	not soluble
HVYILGKIPSPLTLIKAFADVRPSFVIMVPLIIEKLYHKAIAPKIKTPLIKFLLRLPVLKKVIHKSIRSKLIESFGGNFRQIIIGGAALNDEVAHFLYRIGFPLTVG	not soluble
IFEDEEDQITKVDSLKKEGNNFFANGEFEKANEKYQEAIASCPPTSTEVQSILLSNSAAALIKLRKWESAVEAASKSIEIGATNEKALERRAFAYSNMSEKYENSIEDYKQLQESLPKRRVELDRKIAEINEKINNRNEAMKADVMEKLKGFGNFCLSPFGLSTDSFEMVPNGNGGFSVQMKGATNKQEGAS	not soluble
IGKVGYRLGFNLSDYKSKITKYDDNATTKLLSSFYPGQVMGEIWGYIADGYYSVDDFEDTSSWKLKEGITSINGYNVRPGDVKFKNLRDDESSTNVITSGDNTFDNPGDRKVIGNTTPRYQYGINLGANYAGFDLNVILQGTGKRDYWISNVLTFPMNGDNFIPLFDGLSDYWMPKDPDNGDWTAVNPNAKYPRLYGNRGNSGSNLRQSDKYLSDASYLRIKNITLSYNLPKKWLSQIFLSQMKAFVSVENVATFTSLPSGIDPERIEWNYPAFRTVSFGINITL	not soluble
IHNSRWIMTPEVKEDCKMRLFCLPFAGGGALAYRSWCRYMPPEIELCAVQLPGRENRIKDEKFYDINLLIDELVLQILPYLDKPFALYGHSMGGLISFELARRIRKVKGLTPKILFFSGSKAPQLYDHTKDISHLPDELFLKAIKSFNGMPDMFWQDRELIEFKLPTLRADFSVLEGYNYYNEEPLECPISALCGENDKIISKKDMEALALQTKNQFKLRMFDGDHFFINTCRSKVLKSIIEDLN	not soluble
IIGGHEAKPHSRPYMAYLQIMDEYSGSKKCGGFLIREDFVLTAAHCSGSKIQVTLGAHNIKEQEKMQQIIPVVKIIPHPAYNSKTISNDIMLLKLKSKAKRSSAVKPLNLPRRNVKVKPGDVCYVAGWGKLGPMGKYSDTLQEVELTVQEDQKCESYLKNYFDKANEICAGDPKIKRASFRGDSGGPLVCKKVAAGIVSYGQNDGSTPRAFTKVSTFLSWIKKTMKKS	soluble
IKELKMSKDEIKREYKEMEGSPEIKSKRRQFHQEIQSRNMRENVKRSSVVVAAATHIAIGILYKRGETPLPLVTFKYTDAQVQTVRKIAEEEGVPILQRIPLARALYWDALVDHYIPAEQIEATAEVLRWLERQNIEKQHSEML	soluble
IKLVIVTGMSGAGKTVAIQSFEDLGYFTIDNMPPTLVPKFLELAAQSGDTSKIAMVVDMRSRLFFREINSILDSLEINDNINFKILFLDATDTELVSRYKETRRSHPLAADGRVLDGISLERELLAPLKSMSQNVVDTSELTPRQLRKVISKEFSNQDSQSSFRIEVMSFGFKYGIPLDADLVFDVRFLPNPYYKPELRDKTGLDTEVYDYVMSFDESDDFYDHLLALIKPILPGYQNEGKSVLTVAIGCTGGQHRSTAFAHRLSEDLKADWTVNESHRDKNKR	not soluble
INLEDPRSFLGRELPGFAQFDTEILLAGQGTDYTNMPAESPPPSKVMEEEREANLAEIEKQQTQSDNAQKDPPKQTTGDKKVVFIYHTHNTESYLPLLKGETDPDMARHSKANVTLVGDMFGQALESQGIGATVNKTDIQSKLNKKGLNYARSYDESRPVVKDALASNKNLQYIIDIHRDSRRKKDTTATIKGKSYARVAFVVGKKSKNFEENYKIASELHKLMEKKYPGLSTGVFSKGSPGDNGVYNQDLTDRALLLEFGGVDNNLEELQRAANAAADVFSEMYWDAEKVNAASGE	not soluble
IPKNTGGVLNSSVLDDAFSFITSYFDIEYGGLGFGAKFPHPFVDLLFLNYSATRGDDLGKKLGLFTLRKMYYGGIFDQVGGGFHRYTVDREWKLPHFEKLLIDNAELIYDYFTYYIATNDIEILDALRNSVDFVLRELYIDGKGFANSLDADSEGMEGKYYTWTEDELKDSLGNDY	not soluble
